Results as given in patent US20250382344A1, “Soluble GLP1/GIP/NPY2 Receptor Triple Agonists” (Boehringer Ingelheim International GmH, priority 2024, published 2025).
Where a chain is given by its changes, count along the chain named. *1 amine or outer side, *2 acyl side, *3 side chain or, on linkers, in order; H or OH if unused. Where no end group is shown, it is not given here. Side-chain parts run from the residue outwards. [ ]: non-standard residue; d: D form. The star is where a group is joined. C20 diacid = O=C(O)CCCCCCCCCCCCCCCCCCC(=O)*; C18 diacid = O=C(O)CCCCCCCCCCCCCCCCC(=O)*; γGlu = O=C(O)[C@H](CCC(=O)[*:2])N[*:1]; εLys = N[C@@H](CCCCN[*:1])C(=O)[*:2]; AEEA = NCCOCCOCC(=O)O; Aib = CC(C)(N)C(=O)O

T1: human GIP receptor (human, UniProt P48546 22-466)
T1 sequence (looked up): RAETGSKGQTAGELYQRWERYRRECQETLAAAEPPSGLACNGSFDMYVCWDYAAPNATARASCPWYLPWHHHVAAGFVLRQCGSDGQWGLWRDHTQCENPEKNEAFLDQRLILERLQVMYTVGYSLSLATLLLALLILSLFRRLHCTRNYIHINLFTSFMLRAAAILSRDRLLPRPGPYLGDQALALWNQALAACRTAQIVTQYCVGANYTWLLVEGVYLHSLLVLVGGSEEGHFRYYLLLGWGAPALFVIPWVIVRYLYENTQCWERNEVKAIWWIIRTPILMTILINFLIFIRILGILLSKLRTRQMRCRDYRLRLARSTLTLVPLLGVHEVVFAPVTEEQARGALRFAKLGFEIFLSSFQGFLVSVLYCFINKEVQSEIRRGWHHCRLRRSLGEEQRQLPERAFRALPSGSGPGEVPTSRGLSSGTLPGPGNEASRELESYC

T2: human neuropeptide Y2 receptor (human, UniProt P49146 1-381)
T2 sequence (looked up): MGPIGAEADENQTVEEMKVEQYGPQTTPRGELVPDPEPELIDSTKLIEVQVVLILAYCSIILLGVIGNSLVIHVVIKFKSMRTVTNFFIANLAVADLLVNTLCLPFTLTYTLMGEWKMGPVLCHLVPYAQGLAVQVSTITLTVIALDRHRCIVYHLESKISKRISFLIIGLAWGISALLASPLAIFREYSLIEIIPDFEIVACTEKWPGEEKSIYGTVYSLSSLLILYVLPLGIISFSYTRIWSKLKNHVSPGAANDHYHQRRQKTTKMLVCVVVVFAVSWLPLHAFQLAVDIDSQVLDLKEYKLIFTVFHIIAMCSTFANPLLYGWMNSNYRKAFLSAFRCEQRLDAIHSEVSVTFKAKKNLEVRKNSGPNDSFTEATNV

T3: human neuropeptide Y2 receptor (human, UniProt P49146 1-381)
T3 sequence (looked up): T2 sequence (looked up)

B1: Compound 137 (peptide)
peptide: YXEGTFTSDYSIXLEKQAQXAFVRHLINKXTRQRY
modifications: Aib at 2, 13, 20, 30; Lys29 epsilon-amino: C18DA-TRX-gGlu-gGlu-gGlu-gGlu-gGlu-gGlu-eLys; C-terminal amide
B2: Compound 156 (peptide)
peptide: B1 peptide with I12A
modifications: Aib at 2, 13, 20, 30; Lys29 epsilon-amino: C18DA-gGlu-gGlu-gGlu-gGlu-gGlu-gGlu-eLys; C-terminal amide
B3: Compound 147 (peptide)
peptide: B1 peptide with E15D, K16R
modifications: Aib at 2, 13, 20, 30; Lys29 epsilon-amino: C18DA-gGlu-gGlu-gGlu-gGlu-gGlu-gGlu-eLys; C-terminal amide
B4: Compound 130 (peptide)
peptide: Y[Aib]EGTFTSDYSI[Aib]LEEEAQ[Aib]EFVRHLINK([AEEA-AEEA-γGlu-C18 diacid])[Aib]TRQRY-NH2
modifications: N-terminus assumed
SMILES: CC[C@H](C)[C@H](NC(=O)[C@H](CC(C)C)NC(=O)[C@H](Cc1c[nH]cn1)NC(=O)[C@H](CCCNC(=N)N)NC(=O)[C@@H](NC(=O)[C@H](Cc1ccccc1)NC(=O)[C@H](CCC(=O)O)NC(=O)C(C)(C)NC(=O)[C@H](CCC(N)=O)NC(=O)[C@H](C)NC(=O)[C@H](CCC(=O)O)NC(=O)[C@H](CCC(=O)O)NC(=O)[C@H](CCC(=O)O)NC(=O)[C@H](CC(C)C)NC(=O)C(C)(C)NC(=O)[C@@H](NC(=O)[C@H](CO)NC(=O)[C@H](Cc1ccc(O)cc1)NC(=O)[C@H](CC(=O)O)NC(=O)[C@H](CO)NC(=O)[C@@H](NC(=O)[C@H](Cc1ccccc1)NC(=O)[C@@H](NC(=O)CNC(=O)[C@H](CCC(=O)O)NC(=O)C(C)(C)NC(=O)[C@@H](N)Cc1ccc(O)cc1)[C@@H](C)O)[C@@H](C)O)[C@@H](C)CC)C(C)C)C(=O)N[C@@H](CC(N)=O)C(=O)N[C@@H](CCCCNC(=O)COCCOCCNC(=O)COCCOCCNC(=O)CC[C@H](NC(=O)CCCCCCCCCCCCCCCCC(=O)O)C(=O)O)C(=O)NC(C)(C)C(=O)N[C@H](C(=O)N[C@@H](CCCNC(=N)N)C(=O)N[C@@H](CCC(N)=O)C(=O)N[C@@H](CCCNC(=N)N)C(=O)N[C@@H](Cc1ccc(O)cc1)C(N)=O)[C@@H](C)O
B5: Compound 129 (peptide)
peptide: Y[Aib]EGTFTSDYSI[Aib]LEEQAQ[Aib]EFVRHLINK([γGlu-γGlu-γGlu-γGlu-C18 diacid])[Aib]TRQRY-NH2
modifications: N-terminus assumed
SMILES: CC[C@H](C)[C@H](NC(=O)[C@H](CC(C)C)NC(=O)[C@H](Cc1c[nH]cn1)NC(=O)[C@H](CCCNC(=N)N)NC(=O)[C@@H](NC(=O)[C@H](Cc1ccccc1)NC(=O)[C@H](CCC(=O)O)NC(=O)C(C)(C)NC(=O)[C@H](CCC(N)=O)NC(=O)[C@H](C)NC(=O)[C@H](CCC(N)=O)NC(=O)[C@H](CCC(=O)O)NC(=O)[C@H](CCC(=O)O)NC(=O)[C@H](CC(C)C)NC(=O)C(C)(C)NC(=O)[C@@H](NC(=O)[C@H](CO)NC(=O)[C@H](Cc1ccc(O)cc1)NC(=O)[C@H](CC(=O)O)NC(=O)[C@H](CO)NC(=O)[C@@H](NC(=O)[C@H](Cc1ccccc1)NC(=O)[C@@H](NC(=O)CNC(=O)[C@H](CCC(=O)O)NC(=O)C(C)(C)NC(=O)[C@@H](N)Cc1ccc(O)cc1)[C@@H](C)O)[C@@H](C)O)[C@@H](C)CC)C(C)C)C(=O)N[C@@H](CC(N)=O)C(=O)N[C@@H](CCCCNC(=O)CC[C@H](NC(=O)CC[C@H](NC(=O)CC[C@H](NC(=O)CC[C@H](NC(=O)CCCCCCCCCCCCCCCCC(=O)O)C(=O)O)C(=O)O)C(=O)O)C(=O)O)C(=O)NC(C)(C)C(=O)N[C@H](C(=O)N[C@@H](CCCNC(=N)N)C(=O)N[C@@H](CCC(N)=O)C(=O)N[C@@H](CCCNC(=N)N)C(=O)N[C@@H](Cc1ccc(O)cc1)C(N)=O)[C@@H](C)O
B6: Compound 52 (peptide)
peptide: Y[Aib]EGTFTSDYSI[Aib]LEKQAQ[Aib]AFVRHLINK([γGlu-γGlu-εLys-γGlu-γGlu-γGlu-γGlu-C20 diacid])[Aib]TRQRY-NH2
B7: Compound 42 (peptide)
peptide: B1 peptide with K16Q
modifications: Aib at 2, 13, 20, 30; Lys29 epsilon-amino acylated with C18DA-gGlu-gGlu-gGlu-gGlu-gGlu; C-terminal amide
B8: Compound 7 (peptide)
peptide: B1 peptide with X30L
modifications: Aib at 2, 13, 20; Lys29 epsilon-amino acylated with C18DA-gGlu-gGlu-gGlu-gGlu-gGlu-OEG; C-terminal amide
B9: Compound 85 (peptide)
peptide: B1 peptide with T5A
modifications: Aib at 2, 13, 20, 30; Lys29 epsilon-amino acylated with C18DA-gGlu-gGlu-gGlu-gGlu-gGlu-gGlu-eLys; C-terminal amide
B10: Compound 54 (peptide)
peptide: B1 peptide with T5E
modifications: Aib at 2, 13, 20, 30; Lys29 epsilon-amino acylated with C18DA-gGlu-gGlu-gGlu-gGlu-gGlu-gGlu-eLys; C-terminal amide
B11: Compound 25 (peptide)
peptide: Y[Aib]EGTFTSDYSI[Aib]LEEEAQ[Aib]AFVRHLINK([γGlu-γGlu-γGlu-γGlu-C18 diacid])[Aib]TRQRY-NH2
B12: Compound 70 (peptide)
peptide: Y[Aib]EGTFTSDYSI[Aib]LDQQAQ[Aib]AFVRHLINK([εLys-γGlu-γGlu-γGlu-γGlu-γGlu-C18 diacid])[Aib]TRQRY-NH2
B13: Compound 29 (peptide)
peptide: Y[Aib]EGTFTSDYSIALEKQAQ[Aib]AFVRHLINK([γGlu-γGlu-γGlu-γGlu-γGlu-γGlu-C20 diacid])[Aib]TRQRY-NH2
B14: Compound 48 (peptide)
peptide: Y[Aib]EGTFTSDYSI[Aib]LEEQAQ[Aib]AFVRHLINK([εLys-γGlu-γGlu-γGlu-γGlu-γGlu-C18 diacid])[Aib]TRQRY-NH2
B15: Compound 59 (peptide)
peptide: Y[Aib]EGTFTSDYSI[Aib]LEKQAQ[Aib]AFVRHLINK([εLys-γGlu-γGlu-γGlu-γGlu-γGlu-C20 diacid])[Aib]TRQRY-NH2
B16: Compound 77 (peptide)
peptide: Y[Aib]EGTFTSDYSI[Aib]LEKQAQ[Aib]AFVRHLINK([γGlu-γGlu-γGlu-γGlu-C18 diacid])[Aib]TRQRY-NH2
B17: Compound 72 (peptide)
peptide: B1 peptide
modifications: Aib at 2, 13, 20, 30; ArgMe at 34; Lys29 epsilon-amino acylated with C18DA-gGlu-gGlu-gGlu-gGlu-gGlu-gGlu-eLys; C-terminal amide

target: human GLP-1 receptor (human, UniProt P43220 24-463); assay: cell-based or functional assay

Row | Binder | EC50, CreLuc reporter, 100% hP | EC50, CreLuc reporter, 0.5% hP
1 | B1 | 13.7 nM | 
2 | B2 | 33.1 nM | 7 nM
3 | B3 | 2.3 nM | 0.3 nM
4 | B4 | 2.3 nM | 
5 | B5 | 2.8 nM | 0.9 nM

target: T1, human GIP receptor; assay: cell-based or functional assay

Row | Binder | EC50, CreLuc reporter, 0.5% hP | EC50, CreLuc reporter, 100% hP
6 | B1 | 0.5 nM | 
7 | B2 | 0.8 nM | 14.8 nM
8 | B3 | 0.2 nM | 5 nM
9 | B4 | 0.5 nM | 10 nM
10 | B5 | 0.4 nM | 7.1 nM

target: T2, human neuropeptide Y2 receptor; assay: cell-based or functional assay

Row | Binder | EC50, CreLuc reporter, 0.5% hP | EC50, CreLuc reporter, 100% hP
11 | B1 | 20.1 nM | 46.4 nM
12 | B2 | 16.3 nM | 44.1 nM
13 | B3 | 11.1 nM | 86.3 nM
14 | B4 | 75 nM | 789 nM
15 | B5 | 213 nM | 827 nM

target: T3, human neuropeptide Y2 receptor; assay: cell-based or functional assay

Row | Binder | EC50, CreLuc reporter, 100% hP | EC50, CreLuc reporter, 0.5% hP
16 | B6 | 152 nM | 
17 | B7 | 704 nM | 81.4 nM
18 | B8 | 80.6 nM | 12.4 nM
19 | B9 | 16.2 nM | 
20 | B10 | 38.3 nM | 
21 | B11 | 437 nM | 89.2 nM
22 | B12 | 119 nM | 12.8 nM
23 | B13 | 180 nM | 41.3 nM
24 | B14 | 77.2 nM | 11.6 nM
25 | B15 |  | 5.7 nM

target: human GLP-1 receptor (human, UniProt P43220 24-463); assay: cell-based or functional assay; remark: another data set of the same source

Row | Binder | EC50, CreLuc reporter, 0.5% hP | EC50, CreLuc reporter, 100% hP
26 | B6 | 3.3 nM | 
27 | B16 |  | 1.8 nM
28 | B7 | 0.9 nM | 14.5 nM
29 | B8 |  | 7.9 nM
30 | B9 | 10.4 nM | 14.5 nM
31 | B17 | 0.6 nM | 
32 | B10 | 3.4 nM | 14.4 nM
33 | B11 | 0.7 nM | 2 nM
34 | B12 | 0.2 nM | 
35 | B13 | 5.5 nM | 33 nM
36 | B14 | 0.5 nM | 
37 | B15 |  | 16.7 nM
